From the supplement of paper PMC10899765

tested on: MCF10A; experiment: percent viability (nuclei count relative to siNT); higher = more viable cells; conditions: 20 nM; 72 h
Protocol: (§1)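 After 72 h, cells were fixed and stained with Hoechst and anti-fibrillarin, and nucleoli per nucleus were counted with CellProfiler. Values are plate-adjusted percent effect for the one-nucleolus and 5+ nucleoli phenotypes, normalised to siNT (0%) and to the positive controls siNOL11 or siKIF11 (100%), as the mean of biological triplicates. Percent viability is the nuclei count relative to siNT.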

Point of comparison: “AGGGAAGGGGACGAGGGUUGGG [hsa-miR-5196-5p]”, percent viability 40.5%. Against it:
- CCCAGGGCUUGGAGUGGGGCAAGGUU [hsa-miR-4685-5p] — higher, 69.2%
- AAAUUCAUGUUCAAUCUAAACC [hsa-miR-4760-3p] — higher, 68.6%
- GUGGAAAGCAUGCAUCCAGGGUGU [hsa-miR-3978] — higher, 61.1%
- CUCUCUGGCCGUCUACCUUCCA [hsa-miR-3191-5p] — lower, 31.4%
- UGAGGAGAUGCUGGGACUGA [hsa-miR-4784] — higher, 56.7%
- CAGGGCAGGAAGAAGUGGACAA [hsa-miR-4436b-3p] — lower, 20.5%
- CUGGAUGGCUCCUCCAUGUCU [hsa-miR-432-3p] — lower, 16.2%
- CUGUAUGCCCUCACCGCUCA [hsa-miR-675-3p] — lower, 37.8%
- AAGCUUUUUGCUCGAAUUAUGU [hsa-miR-208b-5p] — higher, 108%
- CGGUGGACUGGAGUGGGUGG [hsa-miR-8071] — lower, 9.26%
- CUGAUAAGAACAGAGGCCCAGAU [hsa-miR-3161] — lower, 34.7%
- UGACCUUUGCCUCUCCCCUCAG [hsa-miR-6759-3p] — lower, 20.7%
- UGAAGUUACAUCAUGGUCGCUU [hsa-miR-4670-3p] — lower, 36.1%
- UUCGGGCUGGCCUGCUGCUCCGG [hsa-miR-3944-3p] — lower, 30.8%
- UGGCCCUGACUGAAGACCAGCAGU [hsa-miR-1291] — higher, 51%
- AGGACCUGCGGGACAAGAUUCUU [hsa-miR-492] — higher, 49%
- UCGUACCGUGAGUAAUAAUGCG [hsa-miR-126-3p] — lower, 30.2%
- CCUGAGCCCGGGCCGCGCAG [hsa-miR-1199-5p] — higher, 71.4%
- UUGAGGAAAAGAUGGUCUUAUU [hsa-miR-3915] — lower, 36.5%
- UUACAGUUGUUCAACCAGUUACU [hsa-miR-582-5p] — higher, 165%
- UCAAUCACUUGGUAAUUGCUGU [hsa-miR-4705] — higher, 53.1%
- AAAUAUAUAUAUAUAUGUACGUAU [hsa-miR-1277-5p] — higher, 47.1%
- AUCCAGUUCUCUGAGGGGGCU [hsa-miR-5195-3p] — higher, 46.4%
- CCCUUCCCUCACUCUUCUCUCAG [hsa-miR-6734-3p] — higher, 44.4%
- UGGGCCAGGGAGCAGCUGGUGGG [hsa-miR-4640-5p] — higher, 54.9%
- UGUAAACAUCCUUGACUGGAAG [hsa-miR-30e-5p] — higher, 61.8%
- AAGAGAGGAGCAGUGGUGCUGUGG [hsa-miR-6856-5p] — higher, 52.1%
- UAUAUAUACAGCCAUGCACUC [hsa-miR-5011-5p] — higher, 74.6%
- UGGUGGAGGAAGAGGGCAGCUC [hsa-miR-6880-5p] — lower, 3.74%
- GAAGAUGGUGCUGUGCUGAGGAA [hsa-miR-4647] — higher, 60.7%
- CAACCUGGAGGACUCCAUGCUG [hsa-miR-490-3p] — higher, 41.3%
- ACUCAGUCAUGGUCAUU [hsa-miR-4264] — higher, 95.1%
- CUGUGCGUGUGACAGCGGCUGA [hsa-miR-210] — higher, 56.6%
- GAUAUCAGCUCAGUAGGCACCG [hsa-miR-3074-3p] — lower, 25.1%
- CACUGUGGGUACAUGCU [hsa-miR-4318] — lower, 35.1%
- AGCGGUGCUCCUGCGGGCCGA [hsa-miR-4746-3p] — lower, 34.7%
- UCUGGCUAUCUCACGAGACUGU [hsa-miR-4794] — lower, 35.9%
- CUCACUGAUCAAUGAAUGCA [hsa-miR-181b-2-3p] — higher, 144%
- CAAAGCGCUUCCCUUUGGAGC [hsa-miR-518d-3p] — lower, 29.8%
- UCUAUUCCCCACUCUCCCCAG [hsa-miR-6731-3p] — lower, 32.5%
- UGGAUUUUUGGAUCAGGGA [hsa-miR-1290] — higher, 51%
- AGCUGUACCUGAAACCAAGCA [hsa-miR-4718] — higher, 77.5%
- CUCCUCCACAGCCCCUGCUCAU [hsa-miR-6792-3p] — higher, 56.4%
- UCCUGCGUAGGAUCUGAGGAGU [hsa-miR-3193] — higher, 58.9%

tested on: MCF10A; experiment: 5+ nucleoli phenotype percent effect (relative to siNT 0% and siKIF11 100%); higher = more cells with five or more nucleoli; conditions: 20 nM; 72 h
Protocol: as §1

Point of comparison: UCUGGCUAUCUCACGAGACUGU [hsa-miR-4794], “5+ nucleoli phenotype percent effect” value 3.59%. Against it:
- CCCAGGGCUUGGAGUGGGGCAAGGUU [hsa-miR-4685-5p] — higher, 15%
- AAAUUCAUGUUCAAUCUAAACC [hsa-miR-4760-3p] — higher, 10%
- GUGGAAAGCAUGCAUCCAGGGUGU [hsa-miR-3978] — lower, -30.5%
- CUCUCUGGCCGUCUACCUUCCA [hsa-miR-3191-5p] — lower, -62.4%
- UGAGGAGAUGCUGGGACUGA [hsa-miR-4784] — higher, 22.8%
- CAGGGCAGGAAGAAGUGGACAA [hsa-miR-4436b-3p] — lower, -7.65%
- CUGGAUGGCUCCUCCAUGUCU [hsa-miR-432-3p] — lower, -33.6%
- CUGUAUGCCCUCACCGCUCA [hsa-miR-675-3p] — lower, -14.5%
- AAGCUUUUUGCUCGAAUUAUGU [hsa-miR-208b-5p] — lower, -1.23%
- CGGUGGACUGGAGUGGGUGG [hsa-miR-8071] — lower, -15.7%
- CUGAUAAGAACAGAGGCCCAGAU [hsa-miR-3161] — lower, -24.6%
- UGACCUUUGCCUCUCCCCUCAG [hsa-miR-6759-3p] — lower, -31.2%
- UGAAGUUACAUCAUGGUCGCUU [hsa-miR-4670-3p] — lower, -11.4%
- UUCGGGCUGGCCUGCUGCUCCGG [hsa-miR-3944-3p] — higher, 17.5%
- UGGCCCUGACUGAAGACCAGCAGU [hsa-miR-1291] — higher, 23.5%
- AGGACCUGCGGGACAAGAUUCUU [hsa-miR-492] — lower, -18.8%
- UCGUACCGUGAGUAAUAAUGCG [hsa-miR-126-3p] — lower, -0.677%
- CCUGAGCCCGGGCCGCGCAG [hsa-miR-1199-5p] — higher, 27.4%
- UUGAGGAAAAGAUGGUCUUAUU [hsa-miR-3915] — lower, -19%
- UUACAGUUGUUCAACCAGUUACU [hsa-miR-582-5p] — higher, 12.8%
- UCAAUCACUUGGUAAUUGCUGU [hsa-miR-4705] — higher, 38.7%
- AAAUAUAUAUAUAUAUGUACGUAU [hsa-miR-1277-5p] — higher, 64.2%
- AUCCAGUUCUCUGAGGGGGCU [hsa-miR-5195-3p] — lower, 2.52%
- CCCUUCCCUCACUCUUCUCUCAG [hsa-miR-6734-3p] — higher, 13.3%
- UGGGCCAGGGAGCAGCUGGUGGG [hsa-miR-4640-5p] — higher, 7.66%
- UGUAAACAUCCUUGACUGGAAG [hsa-miR-30e-5p] — higher, 36.3%
- AAGAGAGGAGCAGUGGUGCUGUGG [hsa-miR-6856-5p] — lower, -5.13%
- UAUAUAUACAGCCAUGCACUC [hsa-miR-5011-5p] — higher, 39.8%
- UGGUGGAGGAAGAGGGCAGCUC [hsa-miR-6880-5p] — lower, -19.7%
- GAAGAUGGUGCUGUGCUGAGGAA [hsa-miR-4647] — lower, -5.89%
- CAACCUGGAGGACUCCAUGCUG [hsa-miR-490-3p] — higher, 55.8%
- ACUCAGUCAUGGUCAUU [hsa-miR-4264] — higher, 26.3%
- CUGUGCGUGUGACAGCGGCUGA [hsa-miR-210] — lower, -13.9%
- GAUAUCAGCUCAGUAGGCACCG [hsa-miR-3074-3p] — lower, 2.53%
- CACUGUGGGUACAUGCU [hsa-miR-4318] — lower, -33%
- AGCGGUGCUCCUGCGGGCCGA [hsa-miR-4746-3p] — lower, -33%
- CUCACUGAUCAAUGAAUGCA [hsa-miR-181b-2-3p] — higher, 9.62%
- CAAAGCGCUUCCCUUUGGAGC [hsa-miR-518d-3p] — lower, -31.6%
- UCUAUUCCCCACUCUCCCCAG [hsa-miR-6731-3p] — lower, -13.6%
- AGGGAAGGGGACGAGGGUUGGG [hsa-miR-5196-5p] — higher, 4.34%
- UGGAUUUUUGGAUCAGGGA [hsa-miR-1290] — lower, -26.7%
- AGCUGUACCUGAAACCAAGCA [hsa-miR-4718] — lower, -2.07%
- CUCCUCCACAGCCCCUGCUCAU [hsa-miR-6792-3p] — lower, -21.5%
- UCCUGCGUAGGAUCUGAGGAGU [hsa-miR-3193] — higher, 10.1%

tested on: MCF10A; experiment: one-nucleolus phenotype percent effect (relative to siNT 0% and siNOL11 100%); higher = more cells with one nucleolus (ribosome biogenesis inhibition); conditions: 20 nM; 72 h
Protocol: as §1

Point of comparison: UGAGGAGAUGCUGGGACUGA [hsa-miR-4784], “one-nucleolus phenotype percent effect” value -9%. Against it:
- CCCAGGGCUUGGAGUGGGGCAAGGUU [hsa-miR-4685-5p] — higher, 9.96%
- AAAUUCAUGUUCAAUCUAAACC [hsa-miR-4760-3p] — lower, -13.1%
- GUGGAAAGCAUGCAUCCAGGGUGU [hsa-miR-3978] — higher, 15%
- CUCUCUGGCCGUCUACCUUCCA [hsa-miR-3191-5p] — higher, 46.1%
- CAGGGCAGGAAGAAGUGGACAA [hsa-miR-4436b-3p] — higher, 31.7%
- CUGGAUGGCUCCUCCAUGUCU [hsa-miR-432-3p] — higher, 62%
- CUGUAUGCCCUCACCGCUCA [hsa-miR-675-3p] — higher, 0.624%
- AAGCUUUUUGCUCGAAUUAUGU [hsa-miR-208b-5p] — lower, -24.2%
- CGGUGGACUGGAGUGGGUGG [hsa-miR-8071] — higher, 22.4%
- CUGAUAAGAACAGAGGCCCAGAU [hsa-miR-3161] — higher, 18.2%
- UGACCUUUGCCUCUCCCCUCAG [hsa-miR-6759-3p] — higher, 51.3%
- UGAAGUUACAUCAUGGUCGCUU [hsa-miR-4670-3p] — higher, 2.16%
- UUCGGGCUGGCCUGCUGCUCCGG [hsa-miR-3944-3p] — higher, -7.09%
- UGGCCCUGACUGAAGACCAGCAGU [hsa-miR-1291] — higher, 5.12%
- AGGACCUGCGGGACAAGAUUCUU [hsa-miR-492] — higher, 9.32%
- UCGUACCGUGAGUAAUAAUGCG [hsa-miR-126-3p] — higher, 5.16%
- CCUGAGCCCGGGCCGCGCAG [hsa-miR-1199-5p] — lower, -24.2%
- UUGAGGAAAAGAUGGUCUUAUU [hsa-miR-3915] — higher, -3.96%
- UUACAGUUGUUCAACCAGUUACU [hsa-miR-582-5p] — lower, -29.2%
- UCAAUCACUUGGUAAUUGCUGU [hsa-miR-4705] — lower, -19.5%
- AAAUAUAUAUAUAUAUGUACGUAU [hsa-miR-1277-5p] — lower, -29.6%
- AUCCAGUUCUCUGAGGGGGCU [hsa-miR-5195-3p] — higher, 13.3%
- CCCUUCCCUCACUCUUCUCUCAG [hsa-miR-6734-3p] — higher, -3.15%
- UGGGCCAGGGAGCAGCUGGUGGG [hsa-miR-4640-5p] — higher, 15.3%
- UGUAAACAUCCUUGACUGGAAG [hsa-miR-30e-5p] — higher, 0.878%
- AAGAGAGGAGCAGUGGUGCUGUGG [hsa-miR-6856-5p] — higher, 0.793%
- UAUAUAUACAGCCAUGCACUC [hsa-miR-5011-5p] — lower, -18.5%
- UGGUGGAGGAAGAGGGCAGCUC [hsa-miR-6880-5p] — higher, -4.17%
- GAAGAUGGUGCUGUGCUGAGGAA [hsa-miR-4647] — higher, 22.7%
- CAACCUGGAGGACUCCAUGCUG [hsa-miR-490-3p] — lower, -12.6%
- ACUCAGUCAUGGUCAUU [hsa-miR-4264] — higher, -7.28%
- CUGUGCGUGUGACAGCGGCUGA [hsa-miR-210] — higher, -1.99%
- GAUAUCAGCUCAGUAGGCACCG [hsa-miR-3074-3p] — lower, -9.52%
- CACUGUGGGUACAUGCU [hsa-miR-4318] — higher, 65.2%
- AGCGGUGCUCCUGCGGGCCGA [hsa-miR-4746-3p] — higher, 35.6%
- UCUGGCUAUCUCACGAGACUGU [hsa-miR-4794] — higher, 26.9%
- CUCACUGAUCAAUGAAUGCA [hsa-miR-181b-2-3p] — lower, -19.1%
- CAAAGCGCUUCCCUUUGGAGC [hsa-miR-518d-3p] — higher, 42.6%
- UCUAUUCCCCACUCUCCCCAG [hsa-miR-6731-3p] — higher, -0.0733%
- AGGGAAGGGGACGAGGGUUGGG [hsa-miR-5196-5p] — higher, 5.32%
- UGGAUUUUUGGAUCAGGGA [hsa-miR-1290] — higher, 7%
- AGCUGUACCUGAAACCAAGCA [hsa-miR-4718] — higher, 9.98%
- CUCCUCCACAGCCCCUGCUCAU [hsa-miR-6792-3p] — higher, -4.72%
- UCCUGCGUAGGAUCUGAGGAGU [hsa-miR-3193] — lower, -18.1%
